{"source": "paper PMC11078644", "about": "“Nesprin-2 is a novel scaffold protein for telethonin and FHL-2 in the cardiomyocyte sarcomere” (The Journal of Biological Chemistry, 2024)", "molecules": {"B1": {"name": "nesprin-2 SR51-53 (no tag), co-expressed with His-telethonin (domain or fragment, human, UniProt Q8WXH0 6018-6354, looked up)", "chain": "KETFAFIQQLDKNMSNLRTWLARIESELSKPVVYDVCDDQEIQKRLAEQQDLQRDIEQHSAGVESVFNICDVLLHDSDACANETECDSIQQTTRSLDRRWRNICAMSMERRMKIEETWRLWQKFLDDYSRFEDWLKSAERTAACPNSSEVLYTSAKEELKRFEAFQRQIHERLTQLELINKQYRRLARENRTDTASRLKQMVHEGNQRWDNLQRRVTAVLRRLRHFTNQREEFEGTRESILVWLTEMDLQLTNVEHFSESDADDKMRQLNGFQQEITLNTNKIDQLIVFGEQLIQKSEPLDAVLIEDELEELHRYCQEVFGRVSRFHRRLTSCTPGL", "notes": "nesprin-2 giant, human, spectrin repeats 51-53, amino acids 6018-6354 of the full length of nesprin-2 giant; in CDF DUET-1 without a tag; printed mass 40.51 kDa; source: E. coli BL21(DE3)pLysS, co-expressed with His-telethonin, co-purified (His-trap, SEC)"}}, "key": {"[1]": {"target": "nesprin-2, endogenous ~200 kDa band of neonatal rat heart and neonatal rat cardiomyocytes", "assay": "co-immunoprecipitation with telethonin antibody, Western blot densitometry", "conditions": "lysates harvested 48 h after adenoviral infection, n = 5, parent: est. 1.0, read off a plot"}, "[2]": {"target": "T1, His-telethonin (full length, pET DUET-1, N-terminal 6x Histidine tag), co-expressed with nesprin-2 SR51-53 (UniProt O15273 1-167)", "T1 construct": "telethonin, full length; printed mass 19 kDa; source: E. coli BL21(DE3)pLysS, co-expressed with nesprin-2 SR51-53, co-purified (His-trap, SEC); not shown: 6x His, N-terminal, kept", "T1 sequence (looked up)": "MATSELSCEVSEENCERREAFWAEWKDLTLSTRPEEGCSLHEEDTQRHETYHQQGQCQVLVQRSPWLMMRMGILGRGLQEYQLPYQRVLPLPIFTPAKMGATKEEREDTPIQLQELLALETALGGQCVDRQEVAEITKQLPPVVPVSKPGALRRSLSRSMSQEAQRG", "assay": "SEC; His-telethonin and untagged nesprin-2 SR51-53 co-expressed in E. coli, His-trap, Superdex 200 16/60, then Superdex 75 10/300; 50 mM Tris/HCl pH 7.5, 150 mM NaCl, 100 mM βME; single peak at 10.29 ml, both proteins found by Western blot", "conditions": "both partners purified"}}}
{"molecule": "HA-tagged WT telethonin expressed from adenovirus in neonatal rat cardiomyocytes (from UniProt O15273) S157A; S161A", "values": [{"measurement": "ratio to parent", "setting": "[1]", "value": 4.8}]}
{"molecule": "B1", "values": [{"measurement": "stoichiometry N", "setting": "[2]", "value": "1 nesprin-2 SR51-53 per telethonin"}]}
